Reference: US20030148377A1, “Binding compounds and methods for identifying binding compounds” (priority 2000, published 2003)

Tests used:
[1] = target: T1, ZAP-70 (Homo sapiens, UniProt P43403); assay: Inhibition of ZAP-70 phosphorylation of peptide 1 (phosphocellulose assay, Lineweaver-Burke plot); assay type: biochemical; conditions: peptide 1 as substrate; FIG. 1B; compared to peptide 4
T1 construct: made in house; host or cells: Sf9 cells (baculovirus)
T1 sequence (P43403 1-619): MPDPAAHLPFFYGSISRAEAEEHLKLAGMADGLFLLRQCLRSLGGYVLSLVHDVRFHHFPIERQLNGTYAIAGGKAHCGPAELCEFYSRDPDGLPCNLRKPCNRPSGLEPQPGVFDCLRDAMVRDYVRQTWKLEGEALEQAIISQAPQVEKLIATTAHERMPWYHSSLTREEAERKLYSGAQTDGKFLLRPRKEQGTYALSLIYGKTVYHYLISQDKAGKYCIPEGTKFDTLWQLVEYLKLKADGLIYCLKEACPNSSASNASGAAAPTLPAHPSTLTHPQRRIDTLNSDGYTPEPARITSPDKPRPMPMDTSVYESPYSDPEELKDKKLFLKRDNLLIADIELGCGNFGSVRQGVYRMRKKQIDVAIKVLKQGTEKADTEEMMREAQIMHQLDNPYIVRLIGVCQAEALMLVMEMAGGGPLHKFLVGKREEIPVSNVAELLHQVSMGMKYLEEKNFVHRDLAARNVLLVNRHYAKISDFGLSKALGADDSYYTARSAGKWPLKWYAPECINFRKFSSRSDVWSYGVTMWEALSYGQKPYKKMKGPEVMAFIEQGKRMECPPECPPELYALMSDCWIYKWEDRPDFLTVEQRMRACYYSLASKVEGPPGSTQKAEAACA
Procedure: FIG. 1B: ZAP-70 was also assayed for its ability to phosphorylate peptide 1 (10 μM) in the presence of 0, 10, or 50 μM of peptide 4 (SEQ ID NO: 9) or peptide 5 (SEQ ID NO: 10). Peptide phosphorylation was determined by spotting the reaction mixture on phosphocellulose and washing away the ^32P-ATP with a phosphate buffer. The polylysine tail of peptide 1 facilitates retention on the phosphocellulose (Songyang et al., 1996). The data are presented as the percentage of the activity present in the absence of inhibitory peptides. […]
(§1) Synthetic peptides, tubulin, or GST-band III (construct kindly provided by A. Weiss, University of California, San Francisco) (Zhao and Weiss, 1996) were phosphorylated by ZAP-70-GST-fused protein in the presence or absence of the indicated amount of inhibitory peptides in the kinase buffer (10 mM MnCl2, 50 mM Tris [pH 7.4], 1 mM DTT), 100 μM ATP, and 5 μCi [γ-^32P]ATP for 5 min (or 10 min for GST-band-III) at 30° C. The amount of radioactivity incorporated into substrate peptide was determined using the phosphocellulose assay. […] Phosphorylated tubulin, GST-band III, and myelin basic protein were separated on SDS-PAGE, visualized by autoradiography, and quantitated using a molecular imager (Bio-Rad, Hercules, Calif.).

[2] = target: T2, Lck-GST-fused protein (Homo sapiens, UniProt P06239); assay: Inhibition of myelin basic protein phosphorylation by Lck; assay type: biochemical; conditions: myelin basic protein (5 μM) as substrate; FIG. 1E; compared to peptide 4
T2 construct: made in house; host or cells: Sf9 cells
Procedure: FIG. 1E: A glutathione-S-transferase chimera of Lck was purified from Sf9 cells and assayed for the ability to phosphorylate myelin basic protein (5 μM) in the presence or absence of the same three peptides as used in FIG. 1D. The assay was carried out for 5 min at 30° C.
as §1, with “assay. Lck-GST-fused protein was purified from Sf9 cells. Myelin basic protein was phosphorylated by Lck-GST-fused protein in the presence or absence of inhibitory peptides in the kinase buffer (5 mM MnCl2, 5 mM MgCl2, 25 mM Tris [pH 7.4]), 50 μM ATP, and 5 μCi [γ-^32P]ATP for 5 min at 30° C.” for “assay.”

[3] = target: T1, ZAP-70; assay: Inhibition of tubulin phosphorylation by ZAP-70; assay type: biochemical; conditions: tubulin (5 μM) as substrate; FIG. 1D; compared to peptide 4
Procedure: FIG. 1A: A glutathione-S-transferase chimera of ZAP-70 was purified from Sf9 cells and assayed for its ability to phosphorylate tubulin in the presence of 0, 50, or 100 μM of peptide 1 (SEQ ID NO: 5) or peptide 2 (SEQ ID NO: 6). The assay was carried out in kinase buffer (5 mM MnCl2, 5 mM MgCl2, 25 mM Tris [pH 7.4]), 50 μM ATP, and […] [γ-^32P]ATP for 5 min at 30° C. ^32P-phosphorylated tubulin was separated on SDS-PAGE, visualized by autoradiography (inset), and quantitated using a molecular imager (Bio-Rad).
FIG. 1D: The ZAP-70 Tyr-kinase assay was as described above, using tubulin (5 μM) as substrate. […]
as §1

[4] = target: T3, Human ZAP-70-glutathione S-transferase (GST)-fused protein (human, UniProt P43403 1-619); assay: comparison of ZAP-70 inhibition by peptide 4 and peptide 6, tubulin as substrate
T3 construct: the SH2 domains are spoken of as present; also called ZAP-70-GST fused protein; GST-ZAP-70; not shown: glutathione S-transferase (GST) fusion partner
T3 sequence (looked up): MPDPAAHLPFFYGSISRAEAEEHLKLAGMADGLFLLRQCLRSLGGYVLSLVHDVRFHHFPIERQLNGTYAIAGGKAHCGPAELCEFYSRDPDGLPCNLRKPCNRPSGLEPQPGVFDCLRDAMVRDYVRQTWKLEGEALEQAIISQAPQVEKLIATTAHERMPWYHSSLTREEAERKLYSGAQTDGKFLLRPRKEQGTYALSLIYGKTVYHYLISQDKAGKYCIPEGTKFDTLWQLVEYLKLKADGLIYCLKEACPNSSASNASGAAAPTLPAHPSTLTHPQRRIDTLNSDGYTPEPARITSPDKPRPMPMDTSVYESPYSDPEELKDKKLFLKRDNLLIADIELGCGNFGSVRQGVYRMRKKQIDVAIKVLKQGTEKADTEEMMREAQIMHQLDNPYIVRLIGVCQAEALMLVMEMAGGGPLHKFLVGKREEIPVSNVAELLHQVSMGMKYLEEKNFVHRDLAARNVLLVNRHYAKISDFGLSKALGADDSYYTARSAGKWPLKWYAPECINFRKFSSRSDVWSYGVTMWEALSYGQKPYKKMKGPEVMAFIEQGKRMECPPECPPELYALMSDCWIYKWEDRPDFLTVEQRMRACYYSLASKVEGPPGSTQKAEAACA

[5] = substrate: CC[C@H](C)[C@H](NC(=O)[C@H](CC(C)C)NC(=O)[C@@H](N)CCC(=O)O)C(=O)N[C@@H](CC(C)C)C(=O)N[C@@H](Cc1ccc(O)cc1)C(=O)N[C@@H](CC(C)C)C(=O)N[C@@H](CC(C)C)C(=O)N[C@@H](CC(C)C)C(=O)N[C@@H](CC(C)C)C(=O)N[C@@H](C)C(=O)N[C@@H](CCCCN)C(=O)N[C@@H](CCCCN)C(=O)N[C@@H](CCCCN)C(=O)O; assay: Kinetic parameters for the phosphorylation of synthetic peptides by ZAP-70 (phosphocellulose assay); assay type: biochemical, Human; conditions: other: peptide as substrate, 100 μM ATP, 5 min at 30° C., average of three independent experiments
Procedure: (§2) Human ZAP-70-glutathione S-transferase (GST)-fused protein was expressed in Sf9 cells using baculovirus. In this study, we used GST-ZAP-70 expressed in Sf9 cells without coexpression of Lck for library screening and kinase assays because the substrate selectivity of partially activated ZAP-70 is higher than that of fully activated ZAP-70 in peptide library screening for their specific substrate motifs (unpublished results). ZAP-70-GST fused protein (600 μg) was purified by using glutathione-agarose beads. […]
as §1, with “Calif.). […]” for “Calif.).”

[6] = substrate: CC[C@H](C)[C@H](NC(=O)[C@H](CC(C)C)NC(=O)[C@@H](N)CCCCN)C(=O)N[C@@H](CC(C)C)C(=O)N[C@@H](Cc1ccc(O)cc1)C(=O)N[C@@H](CC(C)C)C(=O)N[C@@H](CC(C)C)C(=O)N[C@@H](CC(C)C)C(=O)N[C@@H](CC(C)C)C(=O)N[C@@H](C)C(=O)N[C@@H](CCCCN)C(=O)N[C@@H](CCCCN)C(=O)N[C@@H](CCCCN)C(=O)O; assay: as above; assay type: biochemical, Human; conditions: other: peptide as substrate, 100 μM ATP, 5 min at 30° C., average of three independent experiments
Procedure: as §2
as §1, with “Calif.). […]” for “Calif.).”

[7] = target: T4, peptide 3 (ELILYLLLL AKKK)
T4 chain: ELILYLLLLAKKK

[8] = target: T5, peptide 2 (predicted optimal ZAP-70 binding peptide, KLILYLLLL AKKK)
T5 chain: KLILYLLLLAKKK

[9] = target: T6, peptide 1 (optimal ZAP-70 substrate, EEEEYFFII AKKK)
T6 chain: EEEEYFFIIAKKK

T2 sequence (P06239 whole entry, the tested form may be a part): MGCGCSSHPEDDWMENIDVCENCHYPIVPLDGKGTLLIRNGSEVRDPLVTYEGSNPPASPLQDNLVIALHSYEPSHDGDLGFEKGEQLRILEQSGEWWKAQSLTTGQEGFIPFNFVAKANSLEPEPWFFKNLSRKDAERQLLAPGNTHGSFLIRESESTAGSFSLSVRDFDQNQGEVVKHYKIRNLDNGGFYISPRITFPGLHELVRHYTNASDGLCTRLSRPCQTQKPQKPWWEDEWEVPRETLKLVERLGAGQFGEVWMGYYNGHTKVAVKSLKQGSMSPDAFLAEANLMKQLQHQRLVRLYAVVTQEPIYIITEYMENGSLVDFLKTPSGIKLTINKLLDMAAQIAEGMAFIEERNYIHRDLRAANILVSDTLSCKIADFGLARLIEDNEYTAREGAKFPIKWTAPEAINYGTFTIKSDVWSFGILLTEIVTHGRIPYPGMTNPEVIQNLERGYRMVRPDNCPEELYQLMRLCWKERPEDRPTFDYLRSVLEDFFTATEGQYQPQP

peptide 5: peptide 4 with deletion of the Lys at position −4 (LILYLLLL)
inhibitory ability on ZAP-70 (in words) [1]: dramatically reduced the inhibitory ability | Lck inhibitory effect (in words) [2]: less effective as an inhibitor of both kinases | ZAP-70 inhibitory effect (in words) [3]: less effective as an inhibitor of both kinases

B1: peptide 6 (KLILYLLLL) (peptide)
peptide: KLILYLLLL
notes: Identical to peptide 4 except for Tyr replacing the Phe
binding result [4]: binds

B2: ZAP-70-GST-fused protein (Homo sapiens) (protein)
chain: MPDPAAHLPFFYGSISRAEAEEHLKLAGMADGLFLLRQCLRSLGGYVLSLVHDVRFHHFPIERQLNGTYAIAGGKAHCGPAELCEFYSRDPDGLPCNLRKPCNRPSGLEPQPGVFDCLRDAMVRDYVRQTWKLEGEALEQAIISQAPQVEKLIATTAHERMPWYHSSLTREEAERKLYSGAQTDGKFLLRPRKEQGTYALSLIYGKTVYHYLISQDKAGKYCIPEGTKFDTLWQLVEYLKLKADGLIYCLKEACPNSSASNASGAAAPTLPAHPSTLTHPQRRIDTLNSDGYTPEPARITSPDKPRPMPMDTSVYESPYSDPEELKDKKLFLKRDNLLIADIELGCGNFGSVRQGVYRMRKKQIDVAIKVLKQGTEKADTEEMMREAQIMHQLDNPYIVRLIGVCQAEALMLVMEMAGGGPLHKFLVGKREEIPVSNVAELLHQVSMGMKYLEEKNFVHRDLAARNVLLVNRHYAKISDFGLSKALGADDSYYTARSAGKWPLKWYAPECINFRKFSSRSDVWSYGVTMWEALSYGQKPYKKMKGPEVMAFIEQGKRMECPPECPPELYALMSDCWIYKWEDRPDFLTVEQRMRACYYSLASKVEGPPGSTQKAEAACA
notes: made in house; host or cells: Sf9 cells (baculovirus)
Km [5]: 188 µM | Km [6]: 26 µM | Km (µM) for phosphorylation of the synthetic peptide by ZAP-70 [7]: 188 µM | Km relative to peptide 2 [7]: 7-fold higher Km than peptide 2 | Km (µM) for phosphorylation of the synthetic peptide by ZAP-70 [8]: 26 µM | Km (µM) for phosphorylation of the synthetic peptide by ZAP-70 [9]: 40 µM
